Experimental data taken from a protein production outcome set (Wang et al. 2014).

Assay: label from the status in PepcDB records

Sequence	protein production
MNTTKRILILLLLALITGCAMHTTRNPSFLEGKRLIAEGRLEEGLGKLEQAAREEPDDREVGATLARERDTIIGQILFEADNARLAGNLDQAEQNYQRVLNIRASSERAREGLDAVDLERRHIVLVNQAKEALAHGDVDGAEKIVRGVLADNPMQSEARQLIKALSEQIARAEMSELSLITEFSKPITMEFRDTSLKTMFELISRTAGINFVFDRNVQQEATASIFVRDNSIEDVLKLMLLTNQLAYKVLNSNTLLIYPDTPAKQKDYQELVVRSFHVANTDVKQMVAMIRGLVKARDIYVNEKLNLFVIRDTLEMIRLVERLVAINDFPDPEVMLDVVVLEVKRDSTLDLGPNMPTSVTFSAVPGIGTPAQAAADSVVKMSMIKNTGFEGLRSFTISNQARIDFGRTLTNADVLANPRIRVKSREKAKIHIGNKEPVFTVTNTANVGSAASATYIDVGLKFEVEPVVRTNNEVTLKALLEVSSNLGEKRSGSGENAATAIVIGTRTAETVLELRDGETQVLAGLIQDDLSRVRSGIAGLTDIPVLGDIFSKQVRKHNKTEIILLITPHIVRNVIQPNHFESEFYSGTASAAGKLPVTIRKTAPRSLAMESSNSASDGGYMSLGRARSAGLFGAAPDLFEEAVTQAREASPSLTLRVPESVAGGREFTATVRLVTQDPMLSGELNLTYDPDTLELVDGGEKSGMRSLKLGRDQSTGMTAVLRFKVISTNATSTEIALQNLQVRDETGQPVEVNLPPAASIRIQ	failed
MNTTLFRWPVRVYYEDTDAGGVVYHASYVAFYERARTEMLRHHHFSQQALMAERVAFVVRKMTVEYYAPARLDDMLEIQTEITSMRGTSLVFTQRIVNAENTLLNEAEVLVVCVDPLKMKPRALPKSIVAEFKQ	not failed
MNVDFINPFLDSLLNVLKTMANMELKPGKPNLKKDNLAKGDVSGLIGMVGPQTKGSLSITFEETLILEIMNKMLGEKPESIDEEVTDLVGELTNMVTGGAKNLLSDKGYEFDMATPIVVSGKNHTIAHKSDGQKIIMPFSSIYGTAYIEICFEG	not failed
MNVLRPTLLTLACLLASPGFADDLPSLGDASSAIVSPQQEYQLGRAWLALLRSQVSQLNDPQLKDYVETSVYKLVETSQVNDRRLEFILINSPQLNAFAAPGGIIGVNGGLFLNAQTEGEYASVLAHELAHLSQRHFARGVEAQQRMQVPMMAALLAGIVIAAAGAGDAGIATIAGTQAAAIQEQRRFSRQNEQEADRIGILNLEKAGYDPRSMPTMFERLMRQYRFDAKPPEFLLTHPVTESRIADTRNRAEQARQGGTEDSLRYQLIRARVQLTYEESPGLAAKRFRAQLDENPKNDIARYGLAIAQIKGSQWNEARENLKPLLAKSPNDVTYNLAQIELDMANSRLPDAQTRVERMLNLYPGNYPLNQIRVDLLLKQNRPADAEKALEGLLKSRPDDPDVWYLVAETRGLSGNIIGLHQARAEYFALVGDYRQAIQQLDFAKRRAGSNFPLSSRIDARQREMMDQEQMVKDMMRLEHHHHHH	not failed
MNVMRHSWLAVAGIAGLLAFPPVDACTLWGAAGTASMEGSLLAKNRDWKPDHAQSLRLLHPEHGYAYLGLYADNGSEPGIKAGVNQKGLAVVAAEASSLPRALRADSARHGVLTRLLRDYGSLDEVASAADKLFAQARPVFLLLADAGGLMQVEIGQHGRYRLIRQQSGTLAHTNHYADTSLLDGAQTIGPSSQARLERIRFLLDQHPAHTLSEFERLSRDRHDGPDNSLWRSGREHTLAGWRIALPAGAPPRLQLTLANPGRAERDGDYALDSAFWAQPARTLLPLEHHHHHH	not failed
MNVSKILVSPTVTTNVLRIFAPRLPQIGASLLVQKKWALRSKKFYRFYSEKNSGEMPPKKEADSSGKASNKSTISSIDNSQPPPPSNTNDKTKQANVAVSHAMLATREQEANKDLTSPDAQAAFYKLLLQSNYPQYVVSRFETPGIASSPECMELYMEALQRIGRHSEADAVRQNLLTASSAGAVNPSLASSSSNQSGYHGNFPSMYSPLYGSRKEPLHVVVSESTFTVVSRWVKWLLVFGILTYSFSEGFKYITENTTLLKSSEVADKSVDVAKTNVKFDDVCGCDEARAELEEIVDFLKDPTKYESLGGKLPKGVLLTGPPGTGKTLLARATAGEAGVDFFFMSGSEFDEVYVGVGAKRIRDLFAQARSRAPAIIFIDELDAIGGKRNPKDQAYAKQTLNQLLVELDGFSQTSGIIIIGATNFPEALDKALTRPGRFDKVVNVDLPDVRGRADILKHHMKKITLADNVDPTIIARGTPGLSGAELANLVNQAAVYACQKNAVSVDMSHFEWAKDKILMGAERKTMVLTDAARKATAFHEAGHAIMAKYTNGATPLYKATILPRGRALGITFQLPEMDKVDITKRECQARLDVCMGGKIAEELIYGKDNTTSGCGSDLQSATGTARAMVTQYGMSDDVGPVNLSENWESWSNKIRDIADNEVIELLKDSEERARRLLTKKNVELHRLAQGLIEYETLDAHEIEQVCKGEKLDKLKTSTNTVVEGPDSDERKDIGDDKPKIPTMLNA	failed
MNVTLGTGDGADFWVFGFGSLIWKPDIPFEECRDAFITGWRRRFWQHSTDHRGTESYPGRVATLVLAEQPGERCYGRAYRVDNEAAADVLAYLDEREKQGYSRLALPVYDARSAEQITKHALVYIAREDNPHFVRAADERQIPVLCRIIARARGPSGDNATYLFRLKESLDEIGVRDEHVDELVFGVRAELEALASACSESTPHGVAVAPTAASFDAVPASSDDLR	failed
MNYAEKKKNWIKLGIFALFAGGILAYIGISNADIHWGGFISMMIFFAFTYYLGAFYAAKKSNSFSDMIVAKRSMPFFVGMVTMAATWVGGGYINGTAESTYSDGLIWAQAPWGYALSLIIGGIFFARKMRRHQFMTIIDPLEQRFGKRMAGVLYIPALLGELFWSAAILTALGTTFGMILNIDFQTSIILSAMIAIAYTVAGGMWAVAFTDVFQMIVILLGLFLVVPFVLSNVGALDSVWANYRHDFGSSANLLPPLDGWKNPDWGNLFWNWWDNALLLIFGGIAWQVYFQRVLSAKSESAAMWQSIIAGVICIIAAIPCVIIGAAGNSTDWSLFGASAPDNPAMILPQTLAYLTPGIIAGLGLGAIAAAVMSSMDSSILSASSMAAWNIYRPLIKPKATQKQLQKVVKRSIILFGAGAAVIALNVKSVYTLWYLASDLVYCILFPQLTMALFYKRANLYGSIAGFAVAVILRLGGGEPAFGIPPLLPYPMIEDGTVLFPFRTLAAVTAFMTIFAVSELTQRKCPPKQLVLPQEKQKDDRAA	failed
MNYKKHRGETLFKRWFLNNRFSIVLLNILLFFLIIWVFNKISFVLNPAWVFFSAILPPLLLALIQYYIMNPVVDWFEKKFRVPRVLTIIVLFLFVVIAMIWIINILVPIAQHQINSLVKNWPHIWNDAVNATQNALRDPRLHSVKGSIQGMIDDTQKTLFKSGQNTVNSTLGNISSAVSIITMIVMTLLTAPFILFFMLKDGHQLRPYITKFVPETWQQSFSKLLYDINYAVASYIRGQITVAFWVGVMFTIGYIIIGLPYGLALAILAGFMNLIPYFGTPLALIPVIVISIMTSGSMLVKVLIVFAIEQTIETRILSPLVMGNKMQMHPVTTILLLIGASSVWGLWGVIFGIPIYAVLKIIVSRVYNYYRRESDIFSNEDAASLTTGDADESKK	failed
MNYLPMMIVFPLIMAIIMNLLHGKEKAVKYITFITAAILIILPFISQYGYYYFGGHGVVNGWVSGIAYLYNPAKQAIIVTLSLIASLVLITGMGEKLKNNMFVTLSLMGFASIAAIVLADDIFNLYVFFEIVSIVQAGLVFLSGTEEAYKAGLRYMIMGNVAAALMLLGIAFLLASTGTLNITDMKHYLLVDNPMIYGGLLLLIVGLAYGAGLPPFHNVKADLYARSKGFISAMLQTYSKFVLVGLMIIILKLFNGLDYFASAHAVLIALGVLAMVFGVVMALLQSDYKKLLAYHAISQGGYVATGLALGTPLGIVAGIFHAINHVIYKSALFLGAYIVSCKRGSNLHKLGGLLPLMPSVAFMVLCAKLAISGIPPFNGFQSKWMLAQAAMQVNMPEIAIIMIIVSIGTFVSMMKAFYLIYLKPVDEETLKEYQNKEVPKLAVFSLFVLTALCIIIGLYPDIVTNYLWDYAKELGVNYYLK	failed
MNYQDVLDFWFAPDHTNFWFAKDSLFDDEIRTQFSTVHQQATQAELWSWRQTVEGRLAEIIVLDQFSRNLYRDQAQAFAQDSMALALAQEAITQQLDAQLSPEQRSFLYMPFMHSESKLIHEFALKLFQKLGNEINLSFEKKHKVIIDQFGRYPHRNAILGRQSTPEELEFLTQPNSHF	failed
MNYQKMNYQKLGVDILALSGGKQNVSKLTHCATRLRFEFNDSHAVQAEAIAKLPGVISVVDRGGQFQVVIGNDVQITYRAILNEIGEMNGQRTSDKNKQQKKGGIFSQIISVISTTFTPVIPAITGAGMIKALLAILKLTGLISADSTTYRLLDTISDAAFFFLPVLLAYGASIKFACNPILAMTIAGALLHPNLAQLLASGGPISFIGIPVRLADYAGSVLPIILTVWIMSYIERFAEKISPSMITFFTKPMIVLLFTAPLALVVIGPFGIFLNDLVASGAAIIDGKASWLIPMLMGGLQPFLVITGTAWAMTPIATSQLTRNGFEMINGPGMLASNIAQGAATLCVAFKTKNKNLKQLASSAGFTALLGITEPSLYGVTLKLKKPLIAAMIGGGCAGIYAGLAGLVRYAFVSPGLAALPAFIGENPMNIVHALITCAIAIVVTFALTWIMGFDDPVDETDNAQTDSTQSDARQSAPAANTTQKSQATENHAEPQTILSPLSGKLVALSDINDDVFSQGLLGQGVAIIPDNGEVVAPVSGEIITFLESKHAVGIRTDSGLELLIHVGLDTVNLNGKHFTGYIKPGDRVTAGDRLISFDLHEITRLGYDPITPVVIINSDEYASVVCTVPQPIAPMDTIINVNA	failed
MNYRLLVFDFDGTLADSEASIMGAMQLVAKEFGLSEVDCVKARPTIGLSLLRTIEIGLGLEAGDAAAAVELYRRYYKEIAFDSTCLFPGVKETQEQLRQNSLLAIASSKSRQGLLSRMRQFGIVDHFSFIAGAQDISGL	failed
MPAFSLLPKPSALLPLLLAAAFLPPAFVHAEEEAAKDQPQAPVERPAVSERSQDEAKGLERQLPEDGQQILKAGDESFLTLWLPANTAEAEGVVILVPGDGESPDWPQAIGPLRRKLPDAGWQTLSLALPDPQSTAPVTRPAESAASASADKDASAADSASKPDVKGESGNAPAPESTAEAGSGEPAQSEDQAPPPAIDPVEQRKAHAERVMARLQASIDLALQHEPKSVVLLGHGTGAYWAARYLAEKEPAEIHNLLLVAAEVPRDFRPALEDMVPKLKLATGDFYYRDARADREAARLRMQAGKRQKHPAYVQIAMQALPADPKAEQEQLYRRIRGWLSLHLQADAQKPAE	failed
MPAKTALIYSNDFSRFSYGDDHPFKIQRIILARELMGMLGLTELPGACIHDCPRADEASLLTFHSPDYLQRLREFSDSDEPRADFRYGLGDLDNPVFKGFYDWAILGVGGTMEAARLVTEEGYDIAFTMAGGWHHAHRSKASGFSYLNDAVIAINTLVAKGLRVAYLDIDAHHGDGVQEAFYDTDQVLTVSIHESGIYFFPGTGFEDEIGRGQGRGYSVNVPLVAHTDDALFMKAFDEVAYPLIAAYNPDVLVTQLGVDTFRTDPLTRLEITTHSYTYILRKLKALKIPWVAVGGGGYNMINVARGWTLAWGIMNGVELPPKLPAQFVDMIAPMGHPNRMLLDAMHWAEEDDRNRALDAVERSIAAIRETVFPVIIGNYAAAAGE	failed
MPALDLIRPSVTAMRVIASVNAEFARELKLPPHIRSLGLISADSDDVTYIAADEATKQAMVEVVYGRSLYAGAAHGPSPTAGEVLIMLGGPNPAEVRAGLDAMVANIENGAAFQWANDAENTAFLAHVVSRTGSYLSSTAGITLGDPMAYLVAPPLEATYGIDAALKSADVQLVTYVPPPSETNYSAAFLTGSQAACKAACNAFTDAVLEIARNPIQRA	not failed
MPAPAATYERVVYKNPSEYHYMKVCLEFQDCGVGLNAAQFKQLLISAVKDLFGEVDAALPLDILTYEEKTLSAILRICSSGLVKLWSSLTLLGSYKGKKCAFRVIQVSPFLLALSGNSRELVLD	not failed
MPARPAYSRLQIALHWLVAILIAAAWLTHEGMGRALETRIETGASGFEGNTPHVWLGIAVFVAVLIRIVVRRVQGAPGPLPGATPLMEKAATWGHRLLYLLMVLTPALGALAWNAHSEAVGELHETVGSALMLVALGHALVALWHQYVKKDGSLTRITRPQG	failed
